Results published in the nanobody polyreactivity screen of Harvey et al. (2022).

Experiment: yeast display, Sf9 membrane polyspecificity reagent, FACS + sequencing; frameworks hold sequencing errors
Method in brief: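 A nanobody's polyreactivity label depends on the gate it was sorted from. Yeast display cells were stained with 10% biotinylated, detergent-solubilized Sf9 membrane reagent for 1 hour at 4 °C, enriched on streptavidin microbeads and sorted by FACS. The low and high (top ~1%) gates were set on anti-HA fluorescence for expression and streptavidin fluorescence for reagent binding.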

Sequence | polyreactivity (PSR sort gate)
QVQLVESGVGLVQAGGSLRLSCAASGSIFWLYAMGWYRQAPGKERELVAAIDSGDSTKYADSVKGRFTISRDTAKNTVYLQMNSLKPEETAVYYSAKDYYYGLEHYGYWGQGTQVTVSS | low polyreactivity
QVQLVESGVGLVQAGGSLRLSCAASGSTFANNAMGWYRQAPGKERELVAAISWSGGSTYYADSVKGRFTISRDNAKNTVYLQMNSLKPEDTAVYYCAADSPRYGGYGYWGQGTQVTLSS | low polyreactivity
QVQLVESGVGLVQAGGSLRLSCAASGSTFDYYVMGWYRQAPGKVRELVAAISETGDDTYYADSVKGRFTLSRDNAKNTVYLQINRLNPEDTAVYYCAADSYFYSGFVRRFYFWGQGSQVTVSS | high polyreactivity
QVQLVESGVGLVQAGGSLRLSCAASGSTFLTNVMGWYRQAPGKERELVAAITIGGSTNYADSVKGRFTISRDNAKNSVYLQMNSLKPEDTAVYYCATDIRRKPRYVDYEYWGQGTQVSVSS | low polyreactivity
QVQLVESGVGLVQAGGSLRLSCAASGSTFRRNTMGWYRKAPGKERELVAAINYSGGSTYYADSVKGRFTISRDNAKNTVYLQMNSLKPEDTAVYYCAARYAYDFPYYYWGQGTQVTVSS | high polyreactivity
QVQLVESGVGLVQAGGSLRLSCAASGSTFVWYAMGWYRQAPGKERELVAVIDWSGGSTSYADSVKGRFTISRDNAKNTVSFQMNSLKPEDTAVYYCAAQQGVISRGNYWGQGTQVTVSS | low polyreactivity
QVQLVESGVGLVQAGGSLRLSCAASGSTFYKYTMGWYRQAPGKESELVSAISRSGGRTYYADSVKGRFTISRDNAKNTVYLQMNSLKPEDTAVYYCAVVTPRYYGDTKYDYWGQGTQVTVSS | high polyreactivity
QVQLVESGVGLVQAGGSLRLSCAASGSTILQNAMGWYRQAPGKERELVAAISRSGGSTYYADSVKGRFTISRDNAKNTVYLQMNSLKPEDTAVYYCAAGGRRYDDDYWGQGTQVTVSS | high polyreactivity
QVQLVESGVGLVQAGGSLRLSCAASGSTYRYAMGWYRQAPGKERELVAAISRSTGSTYYADSVKGRLTISRDNANNTVNLQMNRLKPEDTAVYYCARDVYYRGYKYGYWGQGTQVTVSS | high polyreactivity
QVQLVESGVGLVQAGGSLRLSCAASVRIFLFYAMGGYRQAPVKERELVAAITSGGSTYYADSVKGRFTMSRDNAKNTVYLQMNSLKPEDTAVYYCANYYWGQGTQVTVSS | low polyreactivity
QVQLVESGVGLVQAGGSLRLSCAASVSTFAYNAMGWYRQSPGKEREIVASISWSGGSTYYADSVKGRFTISRDNAKNSVYLQMNSLKPEDTAVYYCAADLNAYPQRAYDYWGQGTQVTVSS | low polyreactivity
QVQLVESGVGLVQAGGSLRLSCAAYGYTFYRYAMGWYRQAPGKERELVAAINKSGGRTYYADSVKGRFTISRDNAKNTVYLQMNSLKPEDTAVYYCNTPFDYPDNPEYDYWGQGTQVTVSS | high polyreactivity
QVQLVESGVGLVQAGGSLRLSCASSGLIFYDNMGWYRQAPGKERELVAAISSSGGSTSYADSVKGRFTISRDNAKNTVYLQMNSLKPEDTAVYYCAADYRRYGSYDYWGQGTQVTVSS | low polyreactivity
QVQLVESGVGLVQAGGSLRLSCASSGRTFTPNGMGWYRQAPGKERELVAAITYGGGITDYADSVKGRFTISRDNAKNTVYLQMNRLNPEDTAVYYCAATTLSFEGGKYWSKYDYWGQGTQVTVSS | low polyreactivity
QVQLVESGVGLVQAGGSLRLTCAASGSIFSVYAMGWYRPAPGKESELVAAITSSGGLTYYADSVKGRITISRDYAKNSVYLQMTSLIPEDTAVYYCATRGIPDDIARDYWGLGTQVTVSS | low polyreactivity
QVQLVESGVGLVQAGGSLSLSCAASGITFPYVMGWYRQAPGKERELVAAISRTGTSTYYADSVKGRFTSSRDNAKNNVYLEMNTLKPEDTAVYYCAARTQTQVYPAYGYWGQGTQVTVSS | high polyreactivity
QVQLVESGVGLVQAGGTLRLSCAASGSIFDWNVIGWYRQTPGKERELVASISESTDSTYYADSVKGRFTISRDNAKNTVYFQMNSLKPEDTAVYYCATAYPEWAVWGYDYWGQGTQVTLSS | low polyreactivity
QVQLVESGVGLVQAGGTLRLSCAATGSIFWDYAMGWYRHAPGKERQLVASITSGGSTYYADSVKGRFTISRDNAMNTVYLQMNSLKPEETAVYYCAADGHTRHWGQTGRGAMYYWGQGTQVTVSS | low polyreactivity
QVQLVESGVGLVQAGRSLSLICAASGSTFFLYGMGWYIQAPGKERDLVAAITWNGGSTYYADSVKGRFTISRDNAKNTVYLQMKSLKPEDTAVYYCAADYYGFFSTPYDYWGQGTQVSVSS | low polyreactivity
QVQLVESGVGLVQARGSLRLSCAASGSIFKYYTRRWYRQAPGKERELVSGISYRGGSTYSADSVKGRFTISRDNAKNTVYLQMNSLKPEDTAVYYCYAFLLSGGDYWGQGSQVTVSS | high polyreactivity
QVQLVESGVGLVQAVGSLRLSCAASGSTFPWYAMGWYRQAPGKERSLVAGSSEGGGSTYYADSVKGRFTISRDNAKNTVYLQMNRLKPEDTAVYYCAADQVGAVYWVGEYGYWGQGTQVTVAS | low polyreactivity

Sequence | polyreactivity (PSR sort gate)
QVQLVESGVGLVQPGGSLRLSSAASGSTSLVNAMRRYRQAPGKERELVAAITRGGNTYYADSVKGRFTISRDNAKNTVYLQMNSLKPEDTAVYYCAAEDHSELGQYDYWGQGTQVTVSS | low polyreactivity
QVQLVESGVRLLQAGGSLRLSCAASGRIFGVYAMGWYITAPGKERELVAAIRGGGSTKYADSVKGRFTISRDNAKNTVYLQMKSLKPEDTAVYYFAARKLYYKHDYWGQGTQVTVSS | low polyreactivity
QVQLVESGVRLVQAGGSLRLSCAASGFNFRRYAMGWYRPAPGKERELVAAISWRSGSTYYADSVKGRFTISRDNAKNTVYLQMNSLKPEDTAVYYCAAKDQATYQLNYWGQGTQVTVSS | high polyreactivity
QVQLVESPGGLVQAGGSLRLSCAASGRTFYRNAMGWYRQAPGKERELVAVISLNGGRTYYADSVKGRFTISRDNAKNTVYLQMNSLKPEDTAVYYCNKLTGPVFTRGFYYWGQGTQVTVSS | high polyreactivity
QVQLVESRAGLVQEGGSLRVSCAASGNILGTYAMGWYRQAPGKERELVAAISSSVGSTYYADSVKARFTISRDNAKNTVYLQINSLKPEDTAVYYCAPQPRVDYEFPYRYGYWGQGSQVTVSS | low polyreactivity
QVQLVESRGALVQAGGSLRLSCAASGLILWVNAMGWNRQAPGKERELVAAISWSSGSTYYADSVKGRFTISRDNAKNTVYLQMNSLKPEASAVYYCAASVRRTGSICHYYYSGQGTQVTVSS | high polyreactivity
QVQLVESRGCLVQAGVSLRLSCAASGSTFQSYAMGCYRQAPGKERELVAAISTSETDRTYYADSVKGRFTISRDNAKNTVYLQMISLKPEDTAVYYCNADGYSHGDWYGYWGQGTQVTVSS | low polyreactivity
QVQLVESRGGLVKAGGSLRLSCAASGRIFRKYDMGWYRQAPGKERELVAAISGTGITYYADSVKGRFTISRDNAKNTVYLQMNRLKPEDTAVYYCARGSKPRAWSWAFASATSIYEYWGQGTQLTVSS | low polyreactivity
QVQLVESRGGLVQAGCSLRLSCAASGSIFLHKAMGWYRQAPGKERELVAVITSRGGSTYYADSVKGRFTISRDNAKITVYVQMNSLNPEDPAVYYCAAPDYHKRTSRGDYWGQGTQVTVSS | low polyreactivity
QVQLVESRGGLVQAGGSHRLSCAASGSIFGYYAMGWYRQAPGNERELVAAIRSTGSTNYADSVKGRFTISRDNAQNSVYLQMNSLKPVDTAVYYCAAGYITWGSGNWVVTPYDYWGQGTQVTVSS | high polyreactivity
QVQLVESRGGLVQAGGSHRLSCADAGYSNIANAMGSDRQAPGKERELVAAISIGGNTKYADSVKGRFTISRDNAKNTVYLQMNSLKPEDTAVYYCAVEDQYYSVSLGGEYDYWGQGTQVTVSS | high polyreactivity
QVQLVESRGGLVQAGGSLPLSCAASGSIFDRYAMGWYRQAPGKERELVAAISRSGGSTYYADSVKGRFTISRDNAKNTVYLQMNSLKPEDTAVYYCAARARSLYDYWGQGTQVTVSS | high polyreactivity
QVQLVESRGGLVQAGGSLRFSCAASGSTFRDYAMGGSRQAPGKERQVLAAISSTGGRTYYADSVKGRFTISRDNAKNTVYLQMNSLKPEDTAVYYCKAALYPSLDYGSASISKSYDYWGQGTQVTVSS | high polyreactivity
QVQLVESRGGLVQAGGSLRISCPDSGFTFTKNAMGWYRQAPGKERELVAAISRGRGRTYYADSVKGRFTISRDNAKNTVYFQMNSLIPEDTAVYYCNVDKVGPGYDYWGQGTQVTVSS | high polyreactivity
QVQLVESRGGLVQAGGSLRLSCAASGFIFTRNAMGWYRQAHGKVRELVAAISYSGGSTYYADSVKGRFTISRDNAKNTVYLQMNSLKPEDTAVYYCNVSPTTSGDGGGYDSWGQGTLVTVSS | low polyreactivity
QVQLVESRGGLVQAGGSLRLSCAASGFTLPANGMGWYRQAPGKERELVAAISFIAGSTYYADSVKGRFTISRDNEKNTVYFQMNSLKPEDTAVYYSATQFPPSSIYDYWGQGTQVTVSS | low polyreactivity
QVQLVESRGGLVQAGGSLRLSCAASGIIFPRYAMGRYRQAPRKERELVAAITRRGGRTYYADSVKGRFTISRDNANNTVYLQMNSLKPEDTAVYYCNADFISTRPPKATDEDYWGQGTQVTVSS | high polyreactivity
QVQLVESRGGLVQAGGSLRLSCAASGITFPRYAMGWYRPAPGKERELVARITSGGRTNYADSVKGRFTISRDNAKNTVYLQMNSLKPEDTAFYYCNAVAQSGRYDYWGQGTQVTVSS | high polyreactivity
QVQLVESRGGLVQAGGSLRLSCAASGLIFTVNAMGWYRQAPGKERELVAAISQSGGSTYYADSVKGRFTISRDNAKNTVYLQMNSLKPEDTAVYYCAAKSDPYRHDYWGQGTQVTVSS | low polyreactivity
QVQLVESRGGLVQAGGSLRLSCAASGRIFGDNAMGWSRQAPGKEREFVATINGSGGSTYYADSVKGRFTISRDNAKNTVYLQMNSLKPEDTAVYYCFVYGYVPYNYWGQGTQVTVSS | low polyreactivity
